Measurements as given in patent US5494895A, “Scorpion peptide margatoxin with immunosuppressant activity” (Merck & Co., Inc., priority 1993, dated 1996).
Ends that are not written are not given here.

Key:
Kv 1.3 = target: T1, Kv 1.3 (Rattus norvegicus, UniProt P15384); assay: [125I]ChTX binding to rat brain synaptic plasma membrane vesicles
T1 construct: from tissue; host or cells: rat brain synaptic plasma membrane vesicles
Method: (§1) The potency of MgTX as an inhibitor of [^125 I]ChTX binding to Kv 1.3 was evaluated. The binding of [^125 I]ChTX to either rat brain synaptic plasma membrane vesicles (Kv 1.3 channel; Vazquez et al., J. Biol. Chem. 265, 15564, 1990) or bovine aortic smooth muscle sarcolemmal membranes (Maxi-K channel; Vazquez et al., J. Biol. Chem. 264, 20402, 1989) was determined as described. Briefly, membrane vesicles were incubated with [^125 I]ChTX in the presence or absence of other added agents, until equilibrium was achieved. Separation of bound from free ligand was accomplished by filtration through GF/C glass fiber filters (WHATMAN) that had been presoaked in 0.5% polyethyleneimine. Nonspecific binding was determined in the presence of 10 nM unlabeled ChTX. Data from saturation experiments were analyzed in a Scatchard representation to determine Kd and Bmax values. Triplicate samples were obtained for each experimental point and the data were averaged. The standard deviation of the mean was typically less than 2%. […] As an indication of selectivity, MgTX had no effect on [^125 I]ChTX binding to the Maxi-K channel in smooth muscle membranes at concentrations up to 10 nM.

Maxi-K channel = target: T2, Maxi-K channel (Bos taurus, UniProt Q28204); assay: [125I]ChTX binding to bovine aortic smooth muscle sarcolemmal membranes
T2 construct: from tissue; host or cells: bovine aortic smooth muscle sarcolemmal membranes
T2 sequence (Q28204 whole entry): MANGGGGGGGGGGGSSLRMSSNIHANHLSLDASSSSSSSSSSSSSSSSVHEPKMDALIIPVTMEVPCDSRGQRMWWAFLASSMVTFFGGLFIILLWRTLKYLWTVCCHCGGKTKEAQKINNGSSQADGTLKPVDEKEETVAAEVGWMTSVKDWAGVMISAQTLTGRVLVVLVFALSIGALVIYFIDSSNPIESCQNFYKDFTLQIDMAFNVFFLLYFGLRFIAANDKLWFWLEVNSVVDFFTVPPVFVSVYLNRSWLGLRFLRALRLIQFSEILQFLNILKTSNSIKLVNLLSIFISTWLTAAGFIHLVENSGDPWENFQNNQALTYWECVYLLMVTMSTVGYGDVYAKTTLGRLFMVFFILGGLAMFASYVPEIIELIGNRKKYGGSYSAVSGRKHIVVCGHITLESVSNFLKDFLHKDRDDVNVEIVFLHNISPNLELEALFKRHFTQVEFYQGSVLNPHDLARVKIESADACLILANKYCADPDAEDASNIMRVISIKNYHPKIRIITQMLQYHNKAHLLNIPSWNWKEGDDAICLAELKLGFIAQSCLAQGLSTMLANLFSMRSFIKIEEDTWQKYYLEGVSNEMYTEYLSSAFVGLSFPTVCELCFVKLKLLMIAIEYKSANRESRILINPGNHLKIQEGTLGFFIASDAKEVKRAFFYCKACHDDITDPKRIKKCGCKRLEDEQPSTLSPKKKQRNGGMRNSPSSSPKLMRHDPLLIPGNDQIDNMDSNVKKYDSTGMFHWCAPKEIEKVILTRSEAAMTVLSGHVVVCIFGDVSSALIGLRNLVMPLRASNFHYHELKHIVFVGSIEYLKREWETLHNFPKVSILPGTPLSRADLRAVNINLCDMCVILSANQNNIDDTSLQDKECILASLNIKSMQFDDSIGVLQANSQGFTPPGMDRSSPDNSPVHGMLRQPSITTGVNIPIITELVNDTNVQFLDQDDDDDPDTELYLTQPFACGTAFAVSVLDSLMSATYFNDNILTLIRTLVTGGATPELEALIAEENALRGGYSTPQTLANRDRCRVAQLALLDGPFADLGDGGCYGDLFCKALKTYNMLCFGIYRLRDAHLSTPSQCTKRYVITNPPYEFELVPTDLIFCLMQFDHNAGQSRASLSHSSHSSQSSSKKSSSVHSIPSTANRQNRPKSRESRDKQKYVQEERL
T2 sequence (Q28067 whole entry partner): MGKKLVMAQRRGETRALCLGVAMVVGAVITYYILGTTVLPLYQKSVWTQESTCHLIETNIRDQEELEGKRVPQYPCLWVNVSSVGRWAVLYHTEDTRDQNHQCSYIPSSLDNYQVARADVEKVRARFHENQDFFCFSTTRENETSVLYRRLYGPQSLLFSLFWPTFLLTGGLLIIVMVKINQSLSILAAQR
Method: as §1

[1] = target: T3, lymphocyte Kv 1.3 current (Homo sapiens, UniProt P22001); assay: Whole cell patch clamp of human peripheral T-lymphocytes; assay type: cell-based; details: electrophysiology, Example 8
T3 construct: endogenous in cells; host or cells: purified human peripheral blood T lymphocytes
T3 sequence (P22001 whole entry): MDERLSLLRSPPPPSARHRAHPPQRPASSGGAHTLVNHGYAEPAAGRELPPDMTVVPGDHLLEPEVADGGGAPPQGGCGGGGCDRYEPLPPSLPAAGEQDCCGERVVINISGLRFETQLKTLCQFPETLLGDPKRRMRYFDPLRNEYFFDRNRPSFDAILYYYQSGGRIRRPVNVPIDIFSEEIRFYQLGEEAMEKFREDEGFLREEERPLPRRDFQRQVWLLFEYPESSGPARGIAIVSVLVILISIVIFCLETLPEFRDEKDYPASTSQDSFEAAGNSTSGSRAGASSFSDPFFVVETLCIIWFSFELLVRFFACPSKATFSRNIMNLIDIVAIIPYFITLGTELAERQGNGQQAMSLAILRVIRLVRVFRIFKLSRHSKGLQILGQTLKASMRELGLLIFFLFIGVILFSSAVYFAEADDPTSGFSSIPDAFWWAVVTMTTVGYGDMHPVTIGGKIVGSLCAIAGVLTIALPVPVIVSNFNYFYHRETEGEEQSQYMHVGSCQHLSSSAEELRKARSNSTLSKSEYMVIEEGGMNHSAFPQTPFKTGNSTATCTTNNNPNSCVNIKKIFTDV
Method: Ionic currents were recorded from human peripheral T-lymphocytes using the whole cell patch clamp technique described in Cahalan, M. and Neher, E., Meth. Enzymol. 207, 3, 1992. Purified human T cells were obtained as described in Leonard et al., Proc. Natl. Acad. Sci. U.S.A., 89, 10094, 1992, and recordings were carried out in a bath solution consisting of ^125 mM NaCl, 2.5 mM KCl, 1.0 mM CaCl2, 2.0 mM MgCl2, 10 mM HEPES (potassium salt), 10 mM glucose, 5 mM Na-pyruvate, and 0.05% BSA. The pH was adjusted to 7.2, and experiments were performed at room temperature (19°-22° C.). The intracellular (pipette) solution contained 140 mM K-glutamate, 1 mM MgCl2, 10 mM HEPES (potassium salt), and 0.1 mM EGTA. The pH was adjusted to 7.2. Patch pipettes were fabricated from DAGAN (Minneapolis, Minn.) LG-16 glass and had resistances of 2 to 8M.OMEGA.. Currents were measured using a DAGAN model 3900 patch clamp. Delivery of command voltages, data acquisition, and post-acquisition analysis were aided by a microcomputer running the Pclamp program suite (AXON INSTRUMENTS, Foster City, Calif.).
Methods for oocyte isolation and micro-injection were previously described in Goldin, Meth. Cell Biol, 36, 487, 1991, and Swanson and Folander, Meth. Enzymol., 207, 310, 1992. Currents expressed in oocytes were measured using a DAGAN model CA-1 two-electrode voltage clamp. Delivery of command voltages, data acquisition and post-acquisition analysis were aided by a microcomputer running the Pclamp program suite. The oocyte bathing solution consisted of 96 mM NaCl, 2.5 mM KCl, 1 mM MgCl2, 1.8 mM CaCl2, 10 mM HEPES, and 0.05% BSA. The pH was 7.2. All recordings were obtained at room temperature (19°-22° C.). The intracellular microelectrodes were fabricated from DAGAN LE-16 glass in a two-stage pull to a final resistance of 0.6 to 2M.OMEGA. and filled with 3M KCl. For both lymphocyte and oocyte experiments, peptides were diluted into the extracellular solution from 20 μM aqueous stock containing 100 mM NaCl. The presence of 0.05% BSA in the bath solution inhibited non-specific loss of dilute peptide toxins in the perfusion tubing.
Both native and recombinant MgTX were tested for their ability to block voltage gated K^+ channels. […] There was insufficient native toxin to carry out selectivity studies, so those were conducted using the recombinant material exclusively. […] The apparent IC50 for inhibition of the lymphocyte Kv 1.3 current is between 20 to 100 pM. […] As reported previously, MgTX has no effect on three different ChTX-sensitive, Ca^2+ -activated K^+ channels of lymphocytes, even at 100 nM (Leonard et al., Proc. Natl. Acad. Sci. U.S.A. 89, 10094, 1992).

Kv 1.6 = target: T4, Kv 1.6 (Rattus norvegicus, UniProt P17659); details: rat clone; cited from earlier work
T4 construct: expressed in transfected cells; host or cells: Xenopus oocytes injected with RNA transcribed in vitro from the cDNA clone
T4 sequence (P17659 whole entry): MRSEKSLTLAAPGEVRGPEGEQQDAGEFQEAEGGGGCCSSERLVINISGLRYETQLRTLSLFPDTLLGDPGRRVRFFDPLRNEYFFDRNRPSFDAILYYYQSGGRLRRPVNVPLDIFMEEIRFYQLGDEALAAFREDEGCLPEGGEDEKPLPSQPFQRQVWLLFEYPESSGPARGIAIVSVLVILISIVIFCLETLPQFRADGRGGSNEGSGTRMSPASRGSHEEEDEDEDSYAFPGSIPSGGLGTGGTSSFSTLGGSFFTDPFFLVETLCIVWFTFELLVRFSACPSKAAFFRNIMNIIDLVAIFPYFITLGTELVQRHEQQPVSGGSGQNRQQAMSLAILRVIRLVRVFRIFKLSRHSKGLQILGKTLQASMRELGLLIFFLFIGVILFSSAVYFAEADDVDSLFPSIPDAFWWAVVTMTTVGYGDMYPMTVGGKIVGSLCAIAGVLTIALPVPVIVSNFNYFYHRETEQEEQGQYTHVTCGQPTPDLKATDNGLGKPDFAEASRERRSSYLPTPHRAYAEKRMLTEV

T1 sequence (P15384 whole entry): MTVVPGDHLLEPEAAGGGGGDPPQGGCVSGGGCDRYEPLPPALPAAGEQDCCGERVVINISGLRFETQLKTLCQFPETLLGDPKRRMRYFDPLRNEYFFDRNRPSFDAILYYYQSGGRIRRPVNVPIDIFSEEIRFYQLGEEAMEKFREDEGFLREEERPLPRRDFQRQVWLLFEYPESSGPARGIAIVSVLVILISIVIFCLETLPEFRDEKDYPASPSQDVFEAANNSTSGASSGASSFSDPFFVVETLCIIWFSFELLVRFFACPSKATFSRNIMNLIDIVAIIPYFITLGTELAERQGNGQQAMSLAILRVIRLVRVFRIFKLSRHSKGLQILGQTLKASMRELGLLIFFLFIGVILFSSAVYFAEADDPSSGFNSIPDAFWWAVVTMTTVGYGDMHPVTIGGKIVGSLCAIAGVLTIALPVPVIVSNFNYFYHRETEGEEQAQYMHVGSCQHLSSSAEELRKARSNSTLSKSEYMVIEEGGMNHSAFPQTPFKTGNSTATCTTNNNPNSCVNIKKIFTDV

Substance	potency for inhibition of [125I]ChTX binding to brain membranes compared with native MgTX (Kv 1.3)	effect on ChTX binding to the Maxi-K channel (Maxi-K channel)	potency and selectivity as an inhibitor of Kv 1.3 compared with native peptide [1]	potency and selectivity as an inhibitor of Kv 1.3 compared with native peptide ([1]; listed as recombinant MgTX)	IC50 (Kv 1.6) [nM]
rMgTX: recombinant MgTX expressed in E. coli as T7 gene 9 fusion protein, cleaved with factor Xa; identical to native peptide (TIINVKCTSPKQCLPPCKAQFGQSAGAKCMNGKCKCYPH; ends and bridges not checked; cysteine pairing not given here; UniProt P40755 1-39, looked up)	same potency as native MgTX	did not affect	same potency and selectivity	identical results	–
charybdotoxin [ChTX]	–	–	–	–	> 1000
